Reference: patent publication EP4768503A1 (Keymed Biosciences (Chengdu) Co., Ltd., dated 2026)
Where no end group is shown, it is not given here. [ ]: non-standard residue; d: D form. pGlu = O=C1CC[C@@H](C(=O)O)N1

Key:
[1] = target: T1, pyroE Aβ3-42 peptide (human, pyroglutamate derived from glutamic acid at the third amino acid position of Aβ (N-terminus of the peptide)); assay: graded binding, chimeric antibody (assay not named; ELISA in Example 1)
T1 construct: Synthetic peptide; It lacks the first two N-terminal residues of Aβ; also called pyroglutamate-modified β-amyloid

[2] = target: T2, pyroE Aβ3-16-biotin polypeptide (human, also: biotin, position not given here); assay: SPR (Biacore T200), biotinylated peptide on SA chip, antibody as analyte; antigen channel not given
T2 peptide: [pGlu]FRHDSGYEVHHQK

[3] = target: T3, Aβ1-42 protofibril (human); assay: SPR (Biacore T200), protofibril on CM5 chip, antibody as analyte
T3 construct: also called amyloid protofibril

[4] = target: T4, Aβ1-42 monomer (human); assay: graded binding, chimeric antibody (assay not named; ELISA in Example 1)
T4 construct: Preparation of the monomer is not described

[5] = target: T3, Aβ1-42 protofibril; assay: as above

T1 sequence (peptide, as listed by the source): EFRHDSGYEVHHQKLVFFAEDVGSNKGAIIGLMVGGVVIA
T3 sequence (peptide, as listed by the source): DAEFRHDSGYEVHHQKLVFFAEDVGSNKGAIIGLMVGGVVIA

Binder | binding result [1] | Kd [2] [pM] | koff [2] [s⁻¹] | kon [2] [M⁻¹ s⁻¹] | Kd [3] [pM] | koff [3] [s⁻¹] | kon [3] [M⁻¹ s⁻¹] | binding result [4] | binding result [5]
200O1 (antibody, V domains shown, Chimeric (parent) antibody; the constant region of the chimeric form is not specified; also called 20001) VH: QVQLKESGPGLVAPSQSLSITCTVSGFSLSRYIVHWYRQPPGKGLEWLGMIWGGGRIDYNSALKSRLSISKDNSKSQVFLKMNSLQTDDTAMYYCARNFGENAEAYWGQGTLVTVSA VL: DIQMTQTTSSLSASLGDRVTITCRASQDINIYLNWYQQKPDGVVKLLIYYTSRLHSGVPSRFSGSGSGTDFSLTISNLEQEDIATYFCQQGHTLPYTFGGGTKLEIK | binds | 0.0716 | 5.44e-08 | 760000 | – | – | – | – | –
151N5 (antibody, V domains shown, Chimeric (parent) antibody; the constant region of the chimeric form is not specified) VH: EVQLVESGGGLVKPGGSLKLSCAASGFTFSDFYMYWVRQTPEKRLEWVATISDGGRYTYYPDRLKGRFTISRNIAKNNLYLQMSSLKSEDTAMYYCARGRSTMITTTRNYFALDYWGQGTSVTVSS VL: DIQMTQSSSSFSVSLGDRVTITCKASEDIYNRLAWYQQKPGDAPRLLISGAIRLETGVPSRFSGSGSGKDYTLSITSLQTEDGATYYCQQYWRTPLTFGAGIKLELK | binds | 291 | 0.000319 | 1.1e+06 | – | – | – | – | –
6B5 (antibody, V domains shown, Chimeric (parent) antibody; the constant region of the chimeric form is not specified) VH: EVQLQQSGAELVKPGASVKLSCKASGYTFTTYWMHWVKQRPGQGLEWIGEIDPSDSYTNYNQKFKGKATLTVDKSSSTAYMQLSSLTSEDSAVYYCARSFHGNFFVYWGQGTLVTVSA VL: QIVLTQSPAIMSASPGEKVTITCSASSSVSYMHWFQQKPGTSPKLWIYSTSNLASGVPARFSGSGSGTSYSLTISRMEAEDAATYYCQQRSSYPLTFGAGTKLELK | binds | – | – | – | 1710 | 0.00196 | 1.15e+06 | binds | –
6C9 (antibody, V domains shown, Chimeric antibody; the constant region of the chimeric form is not specified) VH: QVQLQQSGAELVKPGASVKLSCKASGYTFTNYYVHWVKQRPGQGLEWIGEIDPSDSYSNYNQKFKGKATLTVDKSSSTAYMQLSSLTSEDSAVYYCARSFHGNFFVYWGQGTLVTVSA VL: QIVLTQSPAIMSASLGEEITLTCSASSSVSYMHWFQQKPGTSPKLWIYSTSNLASGVPARFSGSGSGTSYSLTISRMEAEDAATYYCQQRSSYPPTFGGGTKLEIK | binds | – | – | – | – | – | – | binds | binds
11G10 (antibody, V domains shown, Chimeric antibody; the constant region of the chimeric form is not specified) VH: EVQLQQSGAEIVKPGASVKLSCKASGYTFTSYWMHWVKQRPGQGLEWIGEIDPSDSYTNYNQKFKGKATLTVDKSSSTAYMQLRSLTSEDSAVYYCARSFHGNLFVYWGQGTLVTVSA VL: QIVLTQSPAIMSASPGEKVTITCSASSSVSYMHWFQQKPGTSPKLWIYSTSNLATGVPARFSGSGSGTSYSLTISRMEAEDAATYYCQQRSSYPLTFGAGTKLEIK | binds | – | – | – | – | – | – | binds | binds
